These are literature values, as cited in PMC5515885.

The target in this data set is Nup153 (Homo sapiens) (UniProt P49790).
UniProt P49790, sequence (P49790 2-1475): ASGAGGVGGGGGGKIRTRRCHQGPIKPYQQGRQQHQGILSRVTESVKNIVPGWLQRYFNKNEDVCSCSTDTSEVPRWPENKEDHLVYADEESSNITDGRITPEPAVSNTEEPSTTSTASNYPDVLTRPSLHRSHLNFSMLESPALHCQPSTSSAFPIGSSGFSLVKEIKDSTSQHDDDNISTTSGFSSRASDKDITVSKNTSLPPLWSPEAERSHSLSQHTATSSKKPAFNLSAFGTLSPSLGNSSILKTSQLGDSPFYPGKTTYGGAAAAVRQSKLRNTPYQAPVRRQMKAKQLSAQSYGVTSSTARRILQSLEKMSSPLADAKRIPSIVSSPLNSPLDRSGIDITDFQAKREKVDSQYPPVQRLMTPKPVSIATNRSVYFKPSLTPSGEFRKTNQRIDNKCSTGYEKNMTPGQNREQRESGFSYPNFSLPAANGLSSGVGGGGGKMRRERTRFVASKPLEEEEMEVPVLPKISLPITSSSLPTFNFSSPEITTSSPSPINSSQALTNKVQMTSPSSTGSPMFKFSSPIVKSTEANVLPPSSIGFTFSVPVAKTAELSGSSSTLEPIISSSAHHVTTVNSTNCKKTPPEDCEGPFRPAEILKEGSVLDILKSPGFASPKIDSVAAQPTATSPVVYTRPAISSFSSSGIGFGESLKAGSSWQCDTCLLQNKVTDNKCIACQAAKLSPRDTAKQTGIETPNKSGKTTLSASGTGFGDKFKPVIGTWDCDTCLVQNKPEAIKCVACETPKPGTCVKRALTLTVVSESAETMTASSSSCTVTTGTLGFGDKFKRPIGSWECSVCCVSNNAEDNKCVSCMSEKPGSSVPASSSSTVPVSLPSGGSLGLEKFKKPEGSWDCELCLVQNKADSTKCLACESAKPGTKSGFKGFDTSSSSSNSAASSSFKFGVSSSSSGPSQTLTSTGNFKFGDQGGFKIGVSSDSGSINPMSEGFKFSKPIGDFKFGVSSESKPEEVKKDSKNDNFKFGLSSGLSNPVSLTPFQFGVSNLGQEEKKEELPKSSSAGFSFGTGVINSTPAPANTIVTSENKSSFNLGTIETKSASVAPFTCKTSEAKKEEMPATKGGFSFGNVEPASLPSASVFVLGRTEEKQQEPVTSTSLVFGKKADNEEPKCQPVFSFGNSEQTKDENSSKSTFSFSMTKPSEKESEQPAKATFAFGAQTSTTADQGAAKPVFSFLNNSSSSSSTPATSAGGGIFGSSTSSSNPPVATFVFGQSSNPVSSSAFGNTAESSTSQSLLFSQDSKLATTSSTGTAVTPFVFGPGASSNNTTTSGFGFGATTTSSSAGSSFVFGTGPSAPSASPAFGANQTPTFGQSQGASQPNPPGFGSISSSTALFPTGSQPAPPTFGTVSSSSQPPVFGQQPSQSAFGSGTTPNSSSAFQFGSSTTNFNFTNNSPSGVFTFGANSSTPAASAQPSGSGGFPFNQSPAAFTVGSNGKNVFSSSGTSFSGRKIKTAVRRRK

Take importin beta (from UniProt Q14974): the Kd was 9 nM.

The Kd is the constant that tells how readily two partners part at equilibrium.
